From patent publication US20030064069A1 (CAMBRIDGE ANTIBODY TECHNOLOGY, published 2003) come the findings set out here.

Bounds are passed on as bounds.

A word on the IC50: it is the point on the concentration scale where inhibition reaches its midpoint.

Test [1] has as its target T1, Recombinant human TGFβ1 (active TGFβ1) (human, UniProt P01137 279-390).
T1 construct: mature; Recombinant human TGFβ1 from R&D Systems; also called TGFb1
As to the kind of experiment: radioreceptor assay (RRA): scFv inhibits [125I]TGFβ1 binding to A549 cells; approx IC50. From the text:
(§1) The scFv fragments were subsequently tested for their ability to neutralise binding of ¹²⁵I-TGFβ₁ to A549 cells in a radioreceptor binding assay (RRA), using the protocol described in Example 3 (see below). For the RRA, individual clones were expressed as soluble scFv and subsequently purified from periplasmic preparations by immobilised metal affinity chromatography (IMAC) followed by fractionation of monomeric scFv by gel filtration FPLC on a Superdex 75 column (Pharmacia).
(§2) A549 cells were seeded into 24-well plates at 2×10⁵ cells per well for 24 hours in order to achieve >90% confluency. Immediately before the assay, monolayers were washed twice with buffer (1:1 DMEM:Hams-F12) and 0.5 ml assay buffer (1:1 DMEM:Hams F12+0 1% BSA) was added. Two or three-fold serial dilutions of antibodies were prepared in assay buffer and added to an equal volume of 40 pM [¹²⁵I]TGFβ₁ in assay buffer.

For test [2], the target named is T2, Recombinant human latent TGFβ1 (human, UniProt P01137 30-278; P01137 279-390).
T2 construct: domain: latency associated peptide;mature; From R&D Systems
T2 sequence (P01137 30-278 limits assumed, chain 1 of 2): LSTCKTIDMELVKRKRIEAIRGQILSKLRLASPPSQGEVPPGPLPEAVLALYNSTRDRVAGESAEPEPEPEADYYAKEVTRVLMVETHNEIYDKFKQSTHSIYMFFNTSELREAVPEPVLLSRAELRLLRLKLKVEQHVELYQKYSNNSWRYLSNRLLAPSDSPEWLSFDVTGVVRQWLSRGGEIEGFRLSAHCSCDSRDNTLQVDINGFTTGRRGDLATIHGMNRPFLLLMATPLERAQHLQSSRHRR
T2 sequence (P01137 279-390 limits assumed, chain 2 of 2): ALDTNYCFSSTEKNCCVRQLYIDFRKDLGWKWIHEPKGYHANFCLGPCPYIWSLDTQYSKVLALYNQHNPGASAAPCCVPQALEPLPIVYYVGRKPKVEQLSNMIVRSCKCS
As to the kind of experiment: radioreceptor assay and TF1 proliferation assay in the presence of latent TGFβ1.

Test [3] concerns the target T1, Recombinant human TGFβ1 (active TGFβ1). As to the kind of experiment: radioreceptor assay, his-preps of scFv (FIG. 2); reference JT182 scFv. The method, then:
as §2
Purified preparations of SL15S scFv, SL15A IgG4, SL15S IgG4 and Mab ID.11.16 (Genzyme mAb) were also analysed (FIG. 3).

Test [4] has the same target. As to the kind of experiment: radioreceptor assay: inhibition of [125I]TGFβ1 binding to A549 cells; reference CS37 scFv.
Text: as §1, §2

T1 sequence (P01137 279-390 limits assumed): as the sequence (P01137 279-390 limits assumed, chain 2 of 2) above

B1: CS37 scFv (31G9 VH/CS37 VL) (scFv, V domains shown)
VH: QVQLVQSGGGVVQPGRSLRLSCAASGFTFSSYGMHWVRQAPGKGLEWVAVISYDGSIKYYADSVKGRFTISRDNSKNTLYLQMNSLRAEDTAVYYCARTGEYSGYDTSGVELWGQGTTVTVSS
VL: EIVLTQSPSSLSASVGDRVTITCRASQGIGDDLGWYQQKPGKAPILLIYGTSTLQSGVPSRFSGSGSGTDFTLTINSLQPEDFATYYCLQDSNYPLTFGGGTRLEIK
notes: not shown: scFv linker, domain order and tag (on phage: the pCANTAB6 gene III fusion); WO97/13844 is cited for CS37
As to B1, the half-inhibitory concentration (IC50) in test [1] is 10 to 15 nM.

B2: JT182 scFv (JT182 VH/CS37 VL) (scFv, V domains shown)
VH: QVQLVESGGGVVQPGRSLRLSCAASGFTFSSYGMHWVRQAPGKELEWVAVISYDGSIKYYADSVKGRFTISRDNSKNTLYLQMNSLRAEDTAVYYCARTGEYSGYDTPASPDWGQGTTVTVSS
VL: EIVLTQSPSSLSASVGDRVTITCRASQGIGDDLGWYQQKPGKAPILLIYGTSTLQSGVPSRFSGSGSGTDFTLTINSLQPEDFATYYCLQDSNYPLTFGGGTRLEIK
notes: used as his-prep; not shown: scFv linker, domain order and His tag
B2: the concentration for half-maximal inhibition (IC50) in test [1] was in the range of 0.5 to 1 nM.

B3: SL15S scFv (SL15 VH/SL15S VL) (scFv, V domains shown)
VH: EVQLVESGGGVVQPGRSLRLSCAASGFTFSSYGMHWVRQAPGKELEWVAVISYDGSIKYYADSVKGRFTISRDNSKNTLYLQMNSLRAEDTAVYYCARTGEYSGYDTDPQYSWGQGTTVTVSS
VL: EIVLTQSPSSLSASVGDRVTITCRSSQGIGDDLGWYQQKPGKAPILLIYGTSTLQSGVPSRFSGSGSGTDFTLTINSLQPEDFATYYCLQDSNYPLTFGGGTRLEIK
notes: soluble scFv was purified by IMAC ('his-preps') and FPLC; also called CAT-191; CAT 191; not shown: scFv linker, domain order and His/other tag (on phage: the pCANTAB6 gene III fusion)
As for B3, in test [1], the IC50 was around 0.1 nM. The binding result in test [2] was “no binding”. For the same molecule, the “fold more active than JT182 scFv” value in test [3] was 10 fold. The “fold better than CS37 (IC50 in the RRA)” value in test [4] is at least 100 fold.
